We go through 8 molecules from PMC3166298, “Phosphorylation Alters the Interaction of the Arabidopsis Phosphotransfer Protein AHP1 with Its Sensor Kinase ETR1” (PLoS ONE, 2011).

Substitutions are numbered along the chain they refer to. Numbers in names are those of the source.

To fix the notation:
B1: dansylated ETR1 (receptor, Arabidopsis, UniProt P49333 1-738, looked up)
chain: MEVCNCIEPQWPADELLMKYQYISDFFIAIAYFSIPLELIYFVKKSAVFPYRWVLVQFGAFIVLCGATHLINLWTFTTHSRTVALVMTTAKVLTAVVSCATALMLVHIIPDLLSVKTRELFLKNKAAELDREMGLIRTQEETGRHVRMLTHEIRSTLDRHTILKTTLVELGRTLALEECALWMPTRTGLELQLSYTLRHQHPVEYTVPIQLPVINQVFGTSRAVKISPNSPVARLRPVSGKYMLGEVVAVRVPLLHLSNFQINDWPELSTKRYALMVLMLPSDSARQWHVHELELVEVVADQVAVALSHAAILEESMRARDLLMEQNVALDLARREAETAIRARNDFLAVMNHEMRTPMHAIIALSSLLQETELTPEQRLMVETILKSSNLLATLMNDVLDLSRLEDGSLQLELGTFNLHTLFREVLNLIKPIAVVKKLPITLNLAPDLPEFVVGDEKRLMQIILNIVGNAVKFSKQGSISVTALVTKSDTRAADFFVVPTGSHFYLRVKVKDSGAGINPQDIPKIFTKFAQTQSLATRSSGGSGLGLAISKRFVNLMEGNIWIESDGLGKGCTAIFDVKLGISERSNESKQSGIPKVPAIPRHSNFTGLKVLVMDENGVSRMVTKGLLVHLGCEVTTVSSNEECLRVVSHEHKVVFMDVCMPGVENYQIALRIHEKFTKQRHQRPLLVALSGNTDKSTKEKCMSFGLDGVLLKPVSLDNIRDVLSDLLEPRVLYEGM
modifications: dansyl label (dansyl chloride; typical ratio of protein-dansyl labeling 1:4), positions not given
notes: In a dodecylmaltoside micelle; theoretical molecular weight printed as 84.9 kDa; also called ETR1 (dansylated); source: recombinant, purified from the bacterial host, then dansylated
B2: ethylene receptor ethylene response 1 (ETR1), wild type (receptor, Arabidopsis, UniProt P49333 1-738, looked up)
chain: B1 chain
notes: Solubilised in beta-D-dodecylmaltoside; also called sensor kinase ETR1; AtETR1
B3: dansylated AHP1, Q9ZNV9 1-154 (natural protein)
chain: MDLVQKQKSLQDYTKSLFLEGILDSQFLQLQQLQDESNPDFVSQVVTLFFQDSDRILNDLSLSLDQQVVDFKKVDPHVHQLKGSSSSIGAQRVKNACVVFRSFCEQQNVEACHRCLQQVKQEYYLVKNRLETLFKLEQQIVASGGMIPAVELGF
modifications: here or on the partner: dansyl label (dansyl chloride; typical ratio of protein-dansyl labeling 1:4), positions not given; dansyl label (dansyl chloride; typical ratio of protein-dansyl labeling 1:4), positions not given
B4: AHP1-GFP(S65T), wild type Arabidopsis histidine-containing phosphotransfer protein 1 fused to green fluorescent protein, Q9ZNV9 1-154 (natural protein)
chain: B3 chain
B5: dansylated AHP1 (natural protein, Arabidopsis, UniProt Q9ZNV9 1-154, looked up)
chain: B3 chain
modifications: dansyl label (dansyl chloride; typical ratio of protein-dansyl labeling 1:4), positions not given
notes: Theoretical molecular weight printed as 18.3 kDa; also called AHP1 (dansylated, without GFP); source: recombinant, purified from the bacterial host, then dansylated
B6: AHP1(H79E)-GFP(S65T) (natural protein, Arabidopsis, UniProt Q9ZNV9 1-154, looked up)
chain: B3 chain with H79E
notes: AHP1, Arabidopsis histidine-containing phosphotransfer protein 1; also called AHP1 mutant mimicking permanent phosphorylation
B7: AHP1(H79A)-GFP(S65T) (natural protein, Arabidopsis, UniProt Q9ZNV9 1-154, looked up)
chain: B3 chain with H79A
notes: AHP1, Arabidopsis histidine-containing phosphotransfer protein 1

One series concerns the target CheW (UniProt P0A964). As to conditions: cited from earlier work.
Series [1] concerns the molecule itself. Put plainly: fluorescence polarisation; Perrin plot of a single dansylated protein at 0.2 uM; 0.2 M potassium phosphate pH 8.0, 0.05% beta-D-dodecylmaltoside, 10 mM beta-cyclodextrin; 5-25 C; apparent molecular weight. Background: Polarisation of emitted light reports the rotation of a fluorescent probe.
Series [2] deals with the molecule itself. Put plainly: fluorescence polarisation; Perrin plot of 2 uM ETR1 together with 0.2 uM dansylated AHP1; 0.2 M potassium phosphate pH 8.0, 0.05% beta-D-dodecylmaltoside, 10 mM beta-cyclodextrin; 5-25 C; apparent molecular weight.
The target of series [3] is T1, dansylated AHP1 (Arabidopsis), Q9ZNV9.
T1 chain: B3 chain
The series can be described thus: fluorescence polarisation; Perrin plot of a single dansylated protein at 0.2 uM; 0.2 M potassium phosphate pH 8.0, 0.05% beta-D-dodecylmaltoside, 10 mM beta-cyclodextrin; 5-25 C; apparent molecular weight. The settings on record: remark: other sources report otherwise.

The target is the same in series [4]. Put plainly: fluorescence polarisation; Perrin plot of 2 uM ETR1 together with 0.2 uM dansylated AHP1; 0.2 M potassium phosphate pH 8.0, 0.05% beta-D-dodecylmaltoside, 10 mM beta-cyclodextrin; 5-25 C; apparent molecular weight. As to conditions: remark: other sources report otherwise.
The target in series [5] is T2, AHP1-GFP(S65T), wild type Arabidopsis histidine-containing phosphotransfer protein 1 fused to green fluorescent protein (Arabidopsis), Q9ZNV9.
T2 chain: B3 chain
The series can be described thus: fluorescence polarisation; Perrin plot (anisotropy against temperature/viscosity) of 20 nM AHP1-GFP; 50 mM Tris-HCl pH 7.5, 100 mM KCl, 0.1% beta-D-dodecylmaltoside, 0.002% PMSF; 10-30 C, 0-20% glycerol; apparent molecular weight. As to conditions: remark: other sources report otherwise.

In series [6] the target is B2. Put plainly: fluorescence polarisation; Perrin plot of 2 uM ETR1 together with 0.2 uM dansylated AHP1; 0.2 M potassium phosphate pH 8.0, 0.05% beta-D-dodecylmaltoside, 10 mM beta-cyclodextrin; 5-25 C; apparent molecular weight. The settings on record: both partners purified.
In a further series the target is T3, ETR1-D659A (Arabidopsis, UniProt P49333 1-738, D659A).
T3 construct: Represents the non-phosphorylated state of the receiver domain
T3 sequence (looked up): B1 chain with D659A
Put plainly: fluorescence polarisation; ETR1 mutant (0.04-20 uM) titrated to 8 nM AHP1 mutant-GFP(S65T); 50 mM Tris-HCl pH 7.5, 100 mM KCl, 0.1% beta-D-dodecylmaltoside, 0.002% PMSF; fit to a single binding site. As to conditions: both partners purified.

A further series concerns the target T4, ETR1-D659E (Arabidopsis, UniProt P49333 1-738, D659E).
T4 construct: Phosphomimetic of the receiver domain aspartate; also called ETR1 mutant mimicking permanent phosphorylation
T4 sequence (looked up): B1 chain with D659E
Described as above. The settings on record: both partners purified.

Sequence of CheW (P0A964 whole entry): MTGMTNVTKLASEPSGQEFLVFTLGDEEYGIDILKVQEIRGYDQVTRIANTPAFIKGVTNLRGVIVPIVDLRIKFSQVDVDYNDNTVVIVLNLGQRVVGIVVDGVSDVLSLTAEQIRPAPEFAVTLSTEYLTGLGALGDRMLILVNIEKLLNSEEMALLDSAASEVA

Take CheA (from UniProt P07363): the Kd with CheW was 17 µM.

As to B1, the “stoichiometry N” value in series [1] worked out at 2.

As to B2, the “stoichiometry N” value in series [2] is 2.

As for B3, the stoichiometry N in series [3] and in series [4] was 2 each time.

B4: the stoichiometry N in series [5] is 2.

As to B5, in series [6], the binding result is “binds”.

For B6, the Kd in the series with ETR1-D659A is 3.6 µM; with ETR1-D659E it was 16.3 µM.

Turning to B7, the Kd in the series with ETR1-D659A came to 15.4 µM; with ETR1-D659E, 2.6 µM.

As a reminder, the Kd is a measure of binding affinity in units of concentration. Usually stoichiometry N stands for the number of molecules, sites or subunits per partner or assembly.
